According to patent KR20220059888A (dated 2022):

Assays:
개 Tie2 단백질 = target: T1, 개 Tie2 단백질 (개 (dog), UniProt A0A8I3S0B4 27-1128); assay: flow cytometry; HEK293T cells transfected with dog Tie2
T1 construct: whole, on cells; also called 다른 종 유래의 Tie2 단백질

랫 Tie2 단백질 = target: T2, 랫 Tie2 단백질 (랫 (rat), UniProt A0ABK0L6J5 19-1116); assay: flow cytometry; HEK293T cells transfected with rat Tie2
T2 construct: whole, on cells; also called 다른 종 유래의 Tie2 단백질

마우스 Tie2 단백질 = target: T3, 마우스 Tie2 단백질 (마우스 (mouse), UniProt Q02858 23-1122); assay: flow cytometry; HEK293T cells transfected with mouse Tie2
T3 construct: whole, on cells; also called 다른 종 유래의 Tie2 단백질
T3 sequence (Q02858 23-1122): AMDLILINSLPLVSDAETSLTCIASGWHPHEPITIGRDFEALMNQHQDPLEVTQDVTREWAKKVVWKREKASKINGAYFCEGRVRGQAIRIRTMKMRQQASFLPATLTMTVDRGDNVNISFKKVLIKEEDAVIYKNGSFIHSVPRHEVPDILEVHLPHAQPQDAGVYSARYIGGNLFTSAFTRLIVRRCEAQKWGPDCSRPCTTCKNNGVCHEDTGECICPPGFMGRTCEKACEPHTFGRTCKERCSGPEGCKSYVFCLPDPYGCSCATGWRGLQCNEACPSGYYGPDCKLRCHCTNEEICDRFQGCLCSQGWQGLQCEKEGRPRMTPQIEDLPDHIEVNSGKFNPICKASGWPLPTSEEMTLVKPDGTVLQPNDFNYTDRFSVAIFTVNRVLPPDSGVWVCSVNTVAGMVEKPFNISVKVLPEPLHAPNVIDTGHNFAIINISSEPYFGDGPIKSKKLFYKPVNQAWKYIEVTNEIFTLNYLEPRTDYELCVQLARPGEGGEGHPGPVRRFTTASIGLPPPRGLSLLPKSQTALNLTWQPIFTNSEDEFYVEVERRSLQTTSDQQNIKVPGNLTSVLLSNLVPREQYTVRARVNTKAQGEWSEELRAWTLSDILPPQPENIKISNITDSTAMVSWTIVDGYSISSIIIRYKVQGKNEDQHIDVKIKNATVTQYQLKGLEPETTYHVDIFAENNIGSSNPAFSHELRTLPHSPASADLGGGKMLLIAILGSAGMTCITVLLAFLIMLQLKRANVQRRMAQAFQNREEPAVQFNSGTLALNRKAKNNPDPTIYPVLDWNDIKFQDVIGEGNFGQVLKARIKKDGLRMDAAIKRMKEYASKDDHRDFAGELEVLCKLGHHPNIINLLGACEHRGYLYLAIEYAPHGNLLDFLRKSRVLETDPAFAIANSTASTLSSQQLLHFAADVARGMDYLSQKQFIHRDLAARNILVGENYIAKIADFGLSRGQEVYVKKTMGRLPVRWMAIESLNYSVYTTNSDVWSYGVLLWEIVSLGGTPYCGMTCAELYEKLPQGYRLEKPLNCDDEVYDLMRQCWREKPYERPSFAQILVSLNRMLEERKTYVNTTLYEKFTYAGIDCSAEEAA

B1: Ang1mab2-1 (antibody, human IgG1, kappa, V domains shown)
VH: QVQLVESGGGVVQPGRSLRLSCAASGFTFSSYAMHWVRQAPGKGLEWVAVISYDGSNKYYADSVKGRFTISRDNSKNTLYLQMNSLRAEDTAVYYCARQYSGVFEYWGQGTLITVSS
VL: DIQMTQSPDSLAVSLGERATINCKSSQSVLYRSNNRNYLAWYQQKLGQPPQLLIYWASTRESGVPDRFSGSGSGADFTLTISSLQAEDVAVYYCQQYFSIPYTFGQGTKLEIKR
notes: also called 제2 기본 항체
What does the source list for B1?
binding result (개 Tie2 단백질): no binding (tested: 5-g/ml (so in the source)); binding result (랫 Tie2 단백질): no binding (tested: 5-g/ml (so in the source)); binding result (마우스 Tie2 단백질): no binding (tested: 5-g/ml (so in the source))
